Results from patent publication US20230357348A1 (AstraZeneca / MedImmune, published 2023).
Starred links: 1 amine or outer side, 2 acyl side, 3 side chain; linkers in the order of their positions; H or OH if unused. Non-standard residues stand in square brackets, D forms with d. Groups on a side chain read outwards from the residue. Primed or numbered codes have the meaning given here. No end group written: not given here. *: point of attachment. C20 diacid = O=C(O)CCCCCCCCCCCCCCCCCCC(=O)*; C18 diacid = O=C(O)CCCCCCCCCCCCCCCCC(=O)*; γGlu = O=C(O)[C@H](CCC(=O)[*:2])N[*:1]; αMeF = C[C@](N)(Cc1ccccc1)C(=O)O; PEG4′ = polyethylene glycol; AEEA = NCCOCCOCC(=O)O; Aib = CC(C)(N)C(=O)O

B1: Peptide 29 (peptide)
peptide: H[Aib]QGTFTSDVSK[αMeF]LDSK([AEEA-AEEA-γGlu-C18 diacid])RA[Aib]DFVQWLL[Aib]T-OH
modifications: N-terminus assumed
SMILES: CC(C)C[C@H](NC(=O)[C@H](Cc1c[nH]c2ccccc12)NC(=O)[C@H](CCC(N)=O)NC(=O)[C@@H](NC(=O)[C@H](Cc1ccccc1)NC(=O)[C@H](CC(=O)O)NC(=O)C(C)(C)NC(=O)[C@H](C)NC(=O)[C@H](CCCNC(=N)N)NC(=O)[C@H](CCCCNC(=O)COCCOCCNC(=O)COCCOCCNC(=O)CC[C@H](NC(=O)CCCCCCCCCCCCCCCCC(=O)O)C(=O)O)NC(=O)[C@H](CO)NC(=O)[C@H](CC(=O)O)NC(=O)[C@H](CC(C)C)NC(=O)[C@](C)(Cc1ccccc1)NC(=O)[C@H](CCCCN)NC(=O)[C@H](CO)NC(=O)[C@@H](NC(=O)[C@H](CC(=O)O)NC(=O)[C@H](CO)NC(=O)[C@@H](NC(=O)[C@H](Cc1ccccc1)NC(=O)[C@@H](NC(=O)CNC(=O)[C@H](CCC(N)=O)NC(=O)C(C)(C)NC(=O)[C@@H](N)Cc1c[nH]cn1)[C@@H](C)O)[C@@H](C)O)C(C)C)C(C)C)C(=O)N[C@@H](CC(C)C)C(=O)NC(C)(C)C(=O)N[C@H](C(=O)O)[C@@H](C)O
B2: Peptide 23 (peptide)
peptide: H[Aib]HGS[αMeF]TSDVSK[αMeF]LDSK([AEEA-AEEA-γGlu-C18 diacid])AAQD[αMeF]VESIANT-NH2
modifications: N-terminus assumed
SMILES: CC[C@H](C)[C@H](NC(=O)[C@H](CO)NC(=O)[C@H](CCC(=O)O)NC(=O)[C@@H](NC(=O)[C@](C)(Cc1ccccc1)NC(=O)[C@H](CC(=O)O)NC(=O)[C@H](CCC(N)=O)NC(=O)[C@H](C)NC(=O)[C@H](C)NC(=O)[C@H](CCCCNC(=O)COCCOCCNC(=O)COCCOCCNC(=O)CC[C@H](NC(=O)CCCCCCCCCCCCCCCCC(=O)O)C(=O)O)NC(=O)[C@H](CO)NC(=O)[C@H](CC(=O)O)NC(=O)[C@H](CC(C)C)NC(=O)[C@](C)(Cc1ccccc1)NC(=O)[C@H](CCCCN)NC(=O)[C@H](CO)NC(=O)[C@@H](NC(=O)[C@H](CC(=O)O)NC(=O)[C@H](CO)NC(=O)[C@@H](NC(=O)[C@](C)(Cc1ccccc1)NC(=O)[C@H](CO)NC(=O)CNC(=O)[C@H](Cc1c[nH]cn1)NC(=O)C(C)(C)NC(=O)[C@@H](N)Cc1c[nH]cn1)[C@@H](C)O)C(C)C)C(C)C)C(=O)N[C@@H](C)C(=O)N[C@@H](CC(N)=O)C(=O)N[C@H](C(N)=O)[C@@H](C)O
B3: Peptide 31 (peptide)
peptide: H[Aib]QGTFTSDVSK[αMeF]LDSK([AEEA-AEEA-γGlu-C18 diacid])RAQDFVRWLLE[Aib]G-OH
modifications: N-terminus assumed
SMILES: CC(C)C[C@H](NC(=O)[C@H](Cc1c[nH]c2ccccc12)NC(=O)[C@H](CCCNC(=N)N)NC(=O)[C@@H](NC(=O)[C@H](Cc1ccccc1)NC(=O)[C@H](CC(=O)O)NC(=O)[C@H](CCC(N)=O)NC(=O)[C@H](C)NC(=O)[C@H](CCCNC(=N)N)NC(=O)[C@H](CCCCNC(=O)COCCOCCNC(=O)COCCOCCNC(=O)CC[C@H](NC(=O)CCCCCCCCCCCCCCCCC(=O)O)C(=O)O)NC(=O)[C@H](CO)NC(=O)[C@H](CC(=O)O)NC(=O)[C@H](CC(C)C)NC(=O)[C@](C)(Cc1ccccc1)NC(=O)[C@H](CCCCN)NC(=O)[C@H](CO)NC(=O)[C@@H](NC(=O)[C@H](CC(=O)O)NC(=O)[C@H](CO)NC(=O)[C@@H](NC(=O)[C@H](Cc1ccccc1)NC(=O)[C@@H](NC(=O)CNC(=O)[C@H](CCC(N)=O)NC(=O)C(C)(C)NC(=O)[C@@H](N)Cc1c[nH]cn1)[C@@H](C)O)[C@@H](C)O)C(C)C)C(C)C)C(=O)N[C@@H](CC(C)C)C(=O)N[C@@H](CCC(=O)O)C(=O)NC(C)(C)C(=O)NCC(=O)O
B4: Peptide 42 (peptide)
peptide: H[Aib]QGTFTSDVSK[αMeF]LDSK([AEEA-AEEA-γGlu-C18 diacid])RAQDFVQ[Aib]LVAT-OH
modifications: N-terminus assumed
SMILES: CC(C)C[C@H](NC(=O)C(C)(C)NC(=O)[C@H](CCC(N)=O)NC(=O)[C@@H](NC(=O)[C@H](Cc1ccccc1)NC(=O)[C@H](CC(=O)O)NC(=O)[C@H](CCC(N)=O)NC(=O)[C@H](C)NC(=O)[C@H](CCCNC(=N)N)NC(=O)[C@H](CCCCNC(=O)COCCOCCNC(=O)COCCOCCNC(=O)CC[C@H](NC(=O)CCCCCCCCCCCCCCCCC(=O)O)C(=O)O)NC(=O)[C@H](CO)NC(=O)[C@H](CC(=O)O)NC(=O)[C@H](CC(C)C)NC(=O)[C@](C)(Cc1ccccc1)NC(=O)[C@H](CCCCN)NC(=O)[C@H](CO)NC(=O)[C@@H](NC(=O)[C@H](CC(=O)O)NC(=O)[C@H](CO)NC(=O)[C@@H](NC(=O)[C@H](Cc1ccccc1)NC(=O)[C@@H](NC(=O)CNC(=O)[C@H](CCC(N)=O)NC(=O)C(C)(C)NC(=O)[C@@H](N)Cc1c[nH]cn1)[C@@H](C)O)[C@@H](C)O)C(C)C)C(C)C)C(=O)N[C@H](C(=O)N[C@@H](C)C(=O)N[C@H](C(=O)O)[C@@H](C)O)C(C)C
B5: Peptide 40 (peptide)
peptide: H[Aib]QGTFTSDVSK[αMeF]LDSK([AEEA-AEEA-γGlu-C18 diacid])RAQDFVQWLL[Aib]T-OH
modifications: N-terminus assumed
SMILES: CC(C)C[C@H](NC(=O)[C@H](Cc1c[nH]c2ccccc12)NC(=O)[C@H](CCC(N)=O)NC(=O)[C@@H](NC(=O)[C@H](Cc1ccccc1)NC(=O)[C@H](CC(=O)O)NC(=O)[C@H](CCC(N)=O)NC(=O)[C@H](C)NC(=O)[C@H](CCCNC(=N)N)NC(=O)[C@H](CCCCNC(=O)COCCOCCNC(=O)COCCOCCNC(=O)CC[C@H](NC(=O)CCCCCCCCCCCCCCCCC(=O)O)C(=O)O)NC(=O)[C@H](CO)NC(=O)[C@H](CC(=O)O)NC(=O)[C@H](CC(C)C)NC(=O)[C@](C)(Cc1ccccc1)NC(=O)[C@H](CCCCN)NC(=O)[C@H](CO)NC(=O)[C@@H](NC(=O)[C@H](CC(=O)O)NC(=O)[C@H](CO)NC(=O)[C@@H](NC(=O)[C@H](Cc1ccccc1)NC(=O)[C@@H](NC(=O)CNC(=O)[C@H](CCC(N)=O)NC(=O)C(C)(C)NC(=O)[C@@H](N)Cc1c[nH]cn1)[C@@H](C)O)[C@@H](C)O)C(C)C)C(C)C)C(=O)N[C@@H](CC(C)C)C(=O)NC(C)(C)C(=O)N[C@H](C(=O)O)[C@@H](C)O
B6: Peptide 22 (peptide)
peptide: H[Aib]HGS[αMeF]TSDVSK[αMeF]LDSK([AEEA-AEEA-γGlu-γGlu-C20 diacid])AAQD[αMeF]VESIANT-NH2
modifications: N-terminus assumed
SMILES: CC[C@H](C)[C@H](NC(=O)[C@H](CO)NC(=O)[C@H](CCC(=O)O)NC(=O)[C@@H](NC(=O)[C@](C)(Cc1ccccc1)NC(=O)[C@H](CC(=O)O)NC(=O)[C@H](CCC(N)=O)NC(=O)[C@H](C)NC(=O)[C@H](C)NC(=O)[C@H](CCCCNC(=O)COCCOCCNC(=O)COCCOCCNC(=O)CC[C@H](NC(=O)CC[C@H](NC(=O)CCCCCCCCCCCCCCCCCCC(=O)O)C(=O)O)C(=O)O)NC(=O)[C@H](CO)NC(=O)[C@H](CC(=O)O)NC(=O)[C@H](CC(C)C)NC(=O)[C@](C)(Cc1ccccc1)NC(=O)[C@H](CCCCN)NC(=O)[C@H](CO)NC(=O)[C@@H](NC(=O)[C@H](CC(=O)O)NC(=O)[C@H](CO)NC(=O)[C@@H](NC(=O)[C@](C)(Cc1ccccc1)NC(=O)[C@H](CO)NC(=O)CNC(=O)[C@H](Cc1c[nH]cn1)NC(=O)C(C)(C)NC(=O)[C@@H](N)Cc1c[nH]cn1)[C@@H](C)O)C(C)C)C(C)C)C(=O)N[C@@H](C)C(=O)N[C@@H](CC(N)=O)C(=O)N[C@H](C(N)=O)[C@@H](C)O
B7: Peptide 24 (peptide)
peptide: H[Aib]HGS[αMeF]TSDVSK[αMeF]LDSK([AEEA-AEEA-γGlu-C18 diacid])AAQD[αMeF]VQ[Aib]IANT-NH2
modifications: N-terminus assumed
SMILES: CC[C@H](C)[C@H](NC(=O)C(C)(C)NC(=O)[C@H](CCC(N)=O)NC(=O)[C@@H](NC(=O)[C@](C)(Cc1ccccc1)NC(=O)[C@H](CC(=O)O)NC(=O)[C@H](CCC(N)=O)NC(=O)[C@H](C)NC(=O)[C@H](C)NC(=O)[C@H](CCCCNC(=O)COCCOCCNC(=O)COCCOCCNC(=O)CC[C@H](NC(=O)CCCCCCCCCCCCCCCCC(=O)O)C(=O)O)NC(=O)[C@H](CO)NC(=O)[C@H](CC(=O)O)NC(=O)[C@H](CC(C)C)NC(=O)[C@](C)(Cc1ccccc1)NC(=O)[C@H](CCCCN)NC(=O)[C@H](CO)NC(=O)[C@@H](NC(=O)[C@H](CC(=O)O)NC(=O)[C@H](CO)NC(=O)[C@@H](NC(=O)[C@](C)(Cc1ccccc1)NC(=O)[C@H](CO)NC(=O)CNC(=O)[C@H](Cc1c[nH]cn1)NC(=O)C(C)(C)NC(=O)[C@@H](N)Cc1c[nH]cn1)[C@@H](C)O)C(C)C)C(C)C)C(=O)N[C@@H](C)C(=O)N[C@@H](CC(N)=O)C(=O)N[C@H](C(N)=O)[C@@H](C)O

How the values were obtained:
[1] = molecular target: human GLP-1 receptor (hGLP-1R) (human, UniProt P43220 24-463); assay: cell-based or functional assay
[2] = molecular target: human glucagon receptor (hGCGR) (human, UniProt P47871 26-477); assay: cell-based or functional assay
human glucagon receptor (hGCGR), sequence (P47871 26-477): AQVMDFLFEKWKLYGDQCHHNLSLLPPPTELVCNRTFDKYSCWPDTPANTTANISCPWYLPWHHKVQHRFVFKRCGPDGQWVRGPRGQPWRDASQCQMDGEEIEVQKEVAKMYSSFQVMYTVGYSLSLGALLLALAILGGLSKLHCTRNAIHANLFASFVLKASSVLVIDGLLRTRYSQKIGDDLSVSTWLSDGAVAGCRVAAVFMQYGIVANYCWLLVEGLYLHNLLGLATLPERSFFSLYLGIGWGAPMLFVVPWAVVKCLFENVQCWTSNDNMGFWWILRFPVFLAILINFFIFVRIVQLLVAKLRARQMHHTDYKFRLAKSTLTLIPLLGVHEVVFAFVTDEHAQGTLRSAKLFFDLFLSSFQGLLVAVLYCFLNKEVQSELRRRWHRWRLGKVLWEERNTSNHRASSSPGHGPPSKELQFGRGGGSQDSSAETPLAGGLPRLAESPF

Binder	hGLP-1R EC50 (pM) [1]	hGluc-R EC50 (pM) [2]
B1	107 pM	629 pM
B2	266 pM	321 pM
H[Aib]HGS[αMeF]TSDVSK[αMeF]LDSK([AEEA-AEEA-γGlu-γGlu-C20 diacid])AAQD[αMeF]VQ[Aib]IANT-NH2 [Peptide 25]	726 pM	1310 pM
B3	41.3 pM	56.8 pM
B4	665 pM	8190 pM
B5	29.9 pM	123 pM
H[Aib]QGTFTSDYSK[αMeF]LDSK([AEEA-AEEA-γGlu-C18 diacid])RAQDFVQWLV[PEG4′]-NH2 [Peptide 41]	663 pM	5740 pM
B6	1230 pM	2720 pM
B7	82.8 pM	101 pM
